Source: patent US20120052092A1 (published 2012)

Legend:
fH678 Tyr402 = experiment: SPR; 402Tyr
6 7H 8 = experiment: SPR; 402His
6 7Y 8 = experiment: SPR; 402Tyr
fH678 His 402 = experiment: SPR; 402His
FH67 N339E M340S = experiment: SPR
[1] = molecular target: T1, factor H binding protein (wild type, variant 1) (UniProt E6MV22 20-274); experiment: SPR
T1 chain: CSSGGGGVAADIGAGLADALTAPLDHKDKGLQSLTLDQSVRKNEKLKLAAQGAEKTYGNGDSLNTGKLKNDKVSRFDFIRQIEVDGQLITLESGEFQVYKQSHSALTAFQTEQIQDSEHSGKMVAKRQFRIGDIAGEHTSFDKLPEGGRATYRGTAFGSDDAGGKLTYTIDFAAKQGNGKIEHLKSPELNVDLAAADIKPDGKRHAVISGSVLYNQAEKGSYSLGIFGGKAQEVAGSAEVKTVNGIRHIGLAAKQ

[2] = molecular target: T1, factor H binding protein (wild type, …); experiment: SPR
[3] = molecular target: T2, Neisseria gonorrhoeae fHbp homologue (NGO0033) (Neisseria gonorrhoeae); experiment: SPR
T2 chain: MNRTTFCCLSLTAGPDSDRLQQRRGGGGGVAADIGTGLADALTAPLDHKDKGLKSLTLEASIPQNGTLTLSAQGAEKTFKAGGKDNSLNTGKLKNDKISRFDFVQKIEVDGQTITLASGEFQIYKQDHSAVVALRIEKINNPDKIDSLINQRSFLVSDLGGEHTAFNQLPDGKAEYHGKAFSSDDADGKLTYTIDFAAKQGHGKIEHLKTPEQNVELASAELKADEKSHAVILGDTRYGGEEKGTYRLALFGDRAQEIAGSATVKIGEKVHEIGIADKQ

[4] = molecular target: T1, factor H binding protein (wild type, …); experiment: SPR; 402His
fHbp Variant 3 [5] = molecular target: fHbp Variant 3 (Neisseria meningitidis); experiment: SPR
fHbp Variant 2 [6] = molecular target: fHbp Variant 2 (Neisseria meningitidis); experiment: SPR
fHbp variant 3 [7] = molecular target: fHbp variant 3 (Neisseria meningitidis); experiment: SPR; sensorgram
fHbp variant 2 [8] = molecular target: fHbp variant 2 (Neisseria meningitidis); experiment: SPR; sensorgram

B1: fHbp (other)
chain: T1 chain
Kd (fH678 Tyr402): 7.2 nM
Kd (6 7H 8): 6 nM
Kd (6 7Y 8): 7 nM
Kd (fH678 His 402): 5.7 nM

B2: fHbp Variant 1 (other)
chain: T1 chain
Kd (FH67 N339E M340S): 67 nM

B3: fH67 (CCPs 6 and 7 of factor H) (other)
chain: TLKPCDYPDIKHGGLYHENMRRPYFPVAVGKYYSYYCDEHFETPSGSYWDHIHCTQDGWSPAVPCLRKCYFPYLENGYNQNYGRKFVQGKSIDVACHPGYALPKAQTTVTCMENGWSPTPRCI
Kd [1]: 5 nM
Kd [2]: 4 nM
Kd [3]: 6000 nM
Kd [4]: 4 nM

B4: FH67 (other)
chain: B3 chain
Kd (fHbp Variant 3 [5]): 3 nM
Kd (fHbp Variant 2 [6]): 2 nM

B5: Factor H Domains 5, 6 and 7 (other)
chain: KSCDNPYIPNGDYSPLRIKHRTGDEITYQCRNGFYPATRGNTAKCTSTGWIPAPRCTLKPCDYPDIKHGGLYHENMRRPYFPVAVGKYYSYYCDEHFETPSGSYWDHIHCTQDGWSPAVPCLRKCYFPYLENGYNQNYGRKFVQGKSIDVACHPGYALPKAQTTVTCMENGWSPTPRCI
Kd [2]: 6.1 nM
Kd [4]: 6 nM

B6: FH678 (other)
chain: TLKPCDYPDIKHGGLYHENMRRPYFPVAVGKYYSYYCDEHFETPSGSYWDHIHCTQDGWSPAVPCLRKCYFPYLENGYNQNYGRKFVQGKSIDVACHPGYALPKAQTTVTCMENGWSPTPRCIRVKTCSKSSIDIENGFISESQYTYALKEKAKYQCKLGYVTADGETSGSITCGKDGWSAQPTCIKSC
Kd (fHbp Variant 3 [5]): 3 nM
Kd (fHbp Variant 2 [6]): 2 nM
Kd (fHbp variant 3 [7]): 3.43 nM
Kd (fHbp variant 2 [8]): 1.51 nM
